Assay [1] concerns the target wild type tau (UniProt P10636-8 1-441, limits assumed). Briefly: direct ELISA, wild type tau coated.
Protocol: (§1) These candidate antibodies were analyzed for binding to ePHF and specificity for ePHF over wild type tau by direct ELISA.
(§2) For direct ePHF and wildtype tau ELISA, plates were first coated with ePHF or wild type tau. Antigen solutions were prepared in PBS and 50 µL were pipetted into each well. Plates were covered and incubated for one hour at 37° C. or overnight at 4° C. Plates were then washed and blocked by addition of 150 µl of blocking buffer to each well and incubated one hour at room temperature. Plates were then washed before addition of serially diluted candidate antibody samples prepared in blocking buffer. Detection of candidate antibody binding was carried out by washing plates and adding a solution of enzyme-labeled secondary antibody in blocking buffer to each well. Secondary antibody binding was detected by addition of substrate and spectrophotometric analysis of resulting reaction product.
The target in assay [2] is iPHF (UniProt P10636-8 1-441). Briefly: Octet, epitope binning of Example 4.
Protocol: Variable domain nucleic acid sequences from antibodies obtained from immunizations described above were used to prepare recombinant mouse IgG antibodies for iPHF affinity measurement and epitope binding competition analysis. Studies were carried out by Octet (ForteBio, Menlo Park, CA) analysis.
For epitope binding competition analysis, a process also referred to as “epitope binning,” candidate antibodies were analyzed using a sandwich assay format, wherein a first “capture” antibody is attached to the Octet biosensor before antigen and a second antibody are sequentially introduced and biosensor readings are used to determine whether one or both antibodies bind to each antigen. […] PT3, IPN002, or C10.2 antibodies were used as capture antibodies and immobilized on AMC biosensor tips as described above. Biosensor tips were then washed and blocked in 10 µg/ml MOPC. After a further wash, biosensor capture antibodies were associated with iPHF. Candidate antibodies were then analyzed for binding to iPHF. MOPC (non antigen-specific control) and PT3, IPN002, or C10.2 antibodies (in each case matching the biosensor antibody) were used as directly competing controls.
Assay [3] addresses T1, enriched paired helical filament tau protein (ePHF) (human, UniProt P10636 2-758).
T1 construct: Sarkosyl-insoluble filaments isolated from human frontal cortical tissue; aggregated, isoform mix and phosphorylated residues not specified; also called sarkosyl insoluble tau
Briefly: direct ELISA, ePHF coated.
Protocol: as §1, §2

In assay [4] the target is T1, enriched paired helical filament tau …. Briefly: follow up analysis, method not stated.
Assay [5] shares this target. Briefly: cell-based or functional assay.

The source of these data is patent publication US20230192830A1 (VOYAGER THERAPEUTICS, published 2023).

T1 sequence (P10636 other isoform, or with tags, fused parts or gaps limits assumed): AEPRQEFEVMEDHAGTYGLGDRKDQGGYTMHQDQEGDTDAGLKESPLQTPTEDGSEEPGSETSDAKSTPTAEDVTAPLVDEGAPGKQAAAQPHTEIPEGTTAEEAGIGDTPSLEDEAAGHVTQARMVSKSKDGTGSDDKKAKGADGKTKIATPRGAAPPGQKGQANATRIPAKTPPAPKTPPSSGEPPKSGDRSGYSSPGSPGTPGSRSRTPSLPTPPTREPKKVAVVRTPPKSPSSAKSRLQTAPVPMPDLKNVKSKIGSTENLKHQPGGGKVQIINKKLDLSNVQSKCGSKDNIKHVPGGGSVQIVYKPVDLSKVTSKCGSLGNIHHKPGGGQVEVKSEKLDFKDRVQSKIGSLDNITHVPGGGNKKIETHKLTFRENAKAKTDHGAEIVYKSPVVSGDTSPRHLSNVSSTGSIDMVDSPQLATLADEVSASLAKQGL
wild type tau, sequence (P10636 other isoform, or with tags, fused parts or gaps limits assumed): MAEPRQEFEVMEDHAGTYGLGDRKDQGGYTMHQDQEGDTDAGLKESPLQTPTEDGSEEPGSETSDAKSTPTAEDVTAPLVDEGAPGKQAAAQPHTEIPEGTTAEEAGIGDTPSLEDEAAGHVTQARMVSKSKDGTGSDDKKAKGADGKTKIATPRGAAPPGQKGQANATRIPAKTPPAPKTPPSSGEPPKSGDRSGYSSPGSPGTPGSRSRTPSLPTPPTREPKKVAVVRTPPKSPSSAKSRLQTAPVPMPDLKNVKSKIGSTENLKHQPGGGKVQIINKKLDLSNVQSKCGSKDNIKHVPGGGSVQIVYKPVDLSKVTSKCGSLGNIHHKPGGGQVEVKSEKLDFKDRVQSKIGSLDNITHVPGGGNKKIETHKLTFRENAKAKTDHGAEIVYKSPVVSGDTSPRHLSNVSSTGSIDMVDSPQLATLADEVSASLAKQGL

B1: V00014 (antibody, mouse IgG1, V domains shown)
VH: QAYLQQSGAELVRPGASVKMSCKASGYTFTSYNMHWVKQTPRQGLEWIGAIYPGNGDTSYNQKFKGKATLTVDKSSSTAYMQLSSLTSEDSAVYFCARGGMDYWGQGTSVTVSS
VL: DVVMTQTPLSLPVSLGDQASISCRSSQSLVHSNGNTYLHWYLQKPGQSPKLLIYKVSNRFSGVPDRFSGSGSGTDFTLKISRVEAEDLGVYFCSQSTHVPYTFGGGTKLEIK
For B1, the binding result in assay [1] and in assay [2] was “no binding” throughout.

B2: V2004 (antibody, mouse IgG1, V domains shown)
VH: QVQLQQSGAELARPGASVKLSCKSSGYIFSSYWMQWVKQRPGQGLEWIGAIYPGDGDTRYTPKFKGKATLTADKSSSTAYMQLTSLASEDSAVYYCAKGYSQSFDYWGQGTTLTVSS
VL: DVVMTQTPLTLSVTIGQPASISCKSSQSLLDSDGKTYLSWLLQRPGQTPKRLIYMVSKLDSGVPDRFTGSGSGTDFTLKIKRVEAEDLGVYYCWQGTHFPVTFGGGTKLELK
On to B2, for which the binding result in assay [1] was “no binding”.

B3: V00018 (antibody, mouse IgG1, V domains shown)
VH: QVQLQQPGADLVRPGSSVKLSCKASGYTFTRSWMHWVKQRPIEGLEWIGNIDPSDSEAHYNQKFKDKATLTVDKFSNTAYMQLSSLTSEDSAVYYCARWDDFYVAYWGQGTLVTVSA
VL: DIVLTQSPASLAVSLGQRATISCRASKSVSTSGYSYIHWYQQKPGQPPKLLIYLASNLESGVPARFSGSGSGTDFTLNIHPVEEEDAATYYCQHSRELPWTFGGGTKLEIK
B3 had an EC50 in assay [3] of 0.718 nM.

B4: V0023 (antibody, mouse IgG1, V domains shown)
VH: QVQLQQPGTELVKPGASVKLSCKASGYTFTIFWMHWVKQRPGHGLEWIGKINPNNGGGDYNEKFKSKATLTVDKSSTTAYLQLSSLTSEDSAVYYCARGTGTGAMDYWGQGTSVTVSS
VL: DVVMTQTPLSLPVSLGDHASISCRSSQSLVHSNGITHLYWYLQRPGQTPKLLIYRVSNRFSGVPDRFSGSGSGTDFTLKISSVEAEDLGVYFCFQGTHVPRTFGGGTKLEIE
Consider B4, for which the EC50 in assay [3] amounted to 0.11 nM. Further, the “selectivity for ePHF over wild type tau” value in assay [4] was over 100 fold. The “Average IC50 (nM), tau aggregation inhibition, immunodepletion assay with tau RD Biosensor cells” value in assay [5] was 16.5 nM.

B5: V0024 (antibody, mouse IgG1, V domains shown)
VH: QVQLQQPGTELVKPGASVKLSCKASGYTFTRFWMHWVKQRPGQGLEWIGNINPNNGGTDNNERFKSKATLTVDRSSSTAYMQLSSLTSEDSAVYYCARGTGTGAMDYWGQGTSVTVSS
VL: DVVMTQTPLSLPVSLGDQASISCRSSQSLVHSNGNTHLYWYLQKPGQSPKLLIYRVSSRFSGVPDRFSGSGSGTDFTLKISRVEAEDLGVYFCFQGTHVPRTFGGGTKLEIK
As to B5, in assay [5], the “Average IC50 (nM), tau aggregation inhibition, immunodepletion assay with tau RD Biosensor cells” value was found to be 18.6 nM.

B6: V0022 (antibody, mouse IgG1, V domains shown)
VH: QVQLQQPGTELVKPGSSVNLSCKASGFTFTRYWMHWVKERPGHGLEWIGNINPNNGGTDFNEKFKNKATLTVHKSSTTVFIQLSSLTSEDSAVYYCARGTGTGAMDYWGQGTSVTVSS
VL: DVVMTQTPLSLPVSLGDQASISCRSSQSLVHNNGITYLYWYLQKPGQSPKLLIYRVSNRFSGVPDRFGGSGSGTDFTLKISRVEAEDLGVYFCFQGTHVPRTFGGGTKLEIK
Molecule B6 displayed an EC50 in assay [3] of 0.07 nM. In addition, the “selectivity for ePHF over wild type tau” value in assay [4] was over 100 fold. Further, the “Average IC50 (nM), tau aggregation inhibition, immunodepletion assay with tau RD Biosensor cells” value in assay [5] stood at 18.2 nM.

B7: V0025 (antibody, mouse IgG1, V domains shown)
VH: QVQLQQPGTELVKPGASVKLSCKASGFTFTRFWMHWVKQRPGQGLEWIGNINPNNGETNYNEKFKIKAALTVDKSSTTAYMQLSSLTSEDSAVYSCARGTGTGAMDYWGQGTSVTVSS
VL: DVVMTQTPLSLPVSLGDQASISCRSSQSLVHSTGNTYLYWYLQKPGQSPKLLIYRVSTRFSGVPDRFSGSGSGTDFTLKINRVEAEDLGVYFCFQGTHVPRTFGGGTKLEIK
Take B7: the EC50 in assay [3] came to 0.098 nM. This counts as picomolar.

B8: V0035 (antibody, mouse IgG1, V domains shown)
VH: EAQLQQSGAELVRPGSSVKMSCKTSGYTFTSYGINWVKQRPGQGLEWIGYIYIRNGNTAYNEKFKGKATVTSDTSSSTVYMQLSSLTSEDSAIYFCAGTGTSFTYWGQGTLVTVSA
VL: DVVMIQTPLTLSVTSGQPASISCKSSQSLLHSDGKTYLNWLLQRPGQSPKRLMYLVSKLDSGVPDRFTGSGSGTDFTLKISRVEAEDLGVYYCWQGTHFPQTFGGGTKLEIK
In assay [3], B8 registered a concentration for a half-maximal effect (EC50) of 0.315 nM.

B9: V0034 (antibody, mouse IgG1, V domains shown)
VH: EVQLQQSGAELVRPGSSVKMSCKTSGYTFTSYGINWVKQRPGQGLEWVGYIYIRDGNTAYNEKFKGKATVTSDTSSSTVYMQLSSLTSEDSAIYFCAGTGTSFAYWGQGTLVTVSA
VL: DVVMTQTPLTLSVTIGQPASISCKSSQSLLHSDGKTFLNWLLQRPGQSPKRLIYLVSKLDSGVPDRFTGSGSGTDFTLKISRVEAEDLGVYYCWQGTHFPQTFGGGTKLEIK
B9 returned an EC50 in assay [3] of 0.351 nM. The EC50 values of the last two molecules are within 1.5-fold of each other.
